Assay: soluble on expression in E. coli; label from the status in PepcDB or PDB records

Row | Sequence | soluble on expression in E. coli
1 | TSPLYTGAVPRANRIVQQLVEAGADLANIRTMFRNMLRGEEMILSRAEQNVFLQHFPDMLPCGIDRNSELAIALREALRRADSQQAARAPARTPPRSSVRTPERSPAPRTATESSSGSNQRSLLGRFAGLMTSNQRRPSSASNASTSQRPVDRNPPRINLMPTGANRVAMRNRGNNEADAALQALAQNGINMEDLRAALEAYIVWLRPIPLDIANALEGVGITPRFDNPEEAKVDNPLMNLSSALKRRLDA | not soluble
2 | TSSDTQNNKTLAAMKNFAEQYAKRTDTYFCSDLSVTAVVIEGLARHKEELGSPLCPCRHYEDKEAEVKNTFWNCPCVPMRERKECHCMLFLTPDNDFAGDAQDIPMETLEEVKASMA | soluble
3 | TVVEEDTGGNTDLEAVRRTLLAQFEQYAKLNKKIPAEIIGSINGIAENSRLTDTVAAHLQLKLAQRQQILEIPEIGKRMEFLLAQLESELDIMQAEKRIRGRVKRQMEKSQREYYLNEQIKAIHKELGEEDENGELDALEADIKKAGMTKEAEEKCLSELKKLKMMPPMSAESTVVRNYIDTLLELPWKKKSRVSKDIAKAGLVLDADHYGLEKVKERILEYLAVQKRMDKLKGPILCLVGPPGVGKTSLGESIAKATGRKYVRMALGGVRDESEIRGHRRTYIGSMPGKILQNMAKAGVKNPLFLLDEIDKLGNDFRGDPASALLEVLDPEQNNKFADHYAEVDYDLSDVMFIATSNSLNIPTPLLDRMEIIRL | not soluble
4 | VAKMRFIDIGANLLDEMYTGQYNDKPYHPPDLSAVLERAWAAGLEKLMITAGSLKEARAALELAKTDERLYCTVGCHPTRCKEFEDHPGGPEAYLQELLEVLKEGQALGKVVAVGECGLVATDYERLHFCDADTQKKYFEAQFRLAKESGLPMFLHLRAAADDFLDITGRHLGDFPRGGVVHSFDGTAEEAARVLAVPQLAIGINGCSLKTDDNLAVVGGLPLERIMLETDCPWCEIRPTHAGRKHVSAEALAGVTGAKDRKKFMPGCQVKSRNEPANIRQVLEVVAGVKGRTDLEAVADVIFGNTERMFFPTA | not soluble
5 | VALSPLPLPEGLELTGIEGTLWQGQAAQVRWQGMSLGDLNWDLHLSALLLGQLEADIRFGRGSSTQLRGKGVVGVGLSGPYADDFLLSLPAAQAITWLPLPVPLMAQGQLEMAVKQYRFGEPYCQQAEGSLAWSAAQLESPIGALQLGTVVSDFTCQESVVTLKGGQKTAQVSSEFNLSLQPDNRYQAQAWFKPEAEFPESLKEQLSWLPQPDGQGRYPFNQQGQL | not soluble
6 | VAYLTEVVVNEVVEAHEVPEVQHALNINSSESLIHIVRTRRLNQHVKIVDEDYFLKSIVSDIGNDVASDSIYDYLEKVLNLNISYSSKSITFEPFDEQAYQLFGDVSVAYSATVRSIVYLENTMPFQYNISKHLA | not soluble
7 | VEKVFVVGHKNLDMDALGATVGMAHFASQIVRKSYAVYDDMAMNTDIERAVERLKEDGQSPLITLSEAEELVNQHSLLIMVDHSKINLTLSQDFYDRFNEVIVVDHHRRDDDFPENAVLTFIESGASSACELVTELLQFQGAPERLSKIQASILMAGIMLDTKNFSTRVTSRTFDVASYLRSLGSDSGEIQMISATDF | not soluble
8 | VGLGNLKTYGGLRQGSQSYNIDRLKKYLYYGDGTYDDLVNTLLNEAMNDQLESFASFYRGKKLYELPRGWPEIPAKRQR | not soluble
9 | VGPGMPFANRVVNRFGQVGLVPCSIGGTKLSQWQKGEFLYEETVKRAKAAMASGGGGSYRAVLWYQGESDTVDMVDASVYKKRLVKFFSDLRNDLQHPNLPIIQVRCLNT | soluble
10 | VHFHPFGNVNFYEMDWSLKGDLWAHDPVIAKEGSRWYVFHTGSGIQIKTSEDGVHWENMGWVFPSLPDWYKQYVPEKDEDHLWAPDICFYNGIYYLYYSVSTFGKNTSVIGLATNQTLDPRDPDYEWKDMGPVIHSTASDNYNAIAPNVVFDQEGQPWLSFGSFWSGIQLIQLDTETMKPAAQAELLTIASRGEEPNAIEAPFIVCRNGYYYLFVSFDFCCRGIESTYKIAVGRSKDITGPYVDKNGVSMMQGGGTILDEGNDRWIGPGHCAVYFSGVSAILVNHAYDALKNGEPTLQIRPLYWDDEGWPYLSV | soluble
11 | VIDSMTSTDLLPEEPKWVPLSSESIQQYVDEGKVVFVDVTADWCVTCKANKIGVLLQEPVYSELNSANVVPMQGDWTVPSEKITSYLQEHGRFGVPFNVVYGPSAPNGIELPVILNEKVVMDAIKKAGNK | soluble
